# Data: article PMC9513430
# Target: Type I collagen
# Experiment: adhesion of whole bacteria to a coated plate (crystal violet staining); type I collagen (0.002-2 mg in 0.25 M acetic acid) coated on 96-well plates overnight at 4°C, blocked with BSA; overnight cultures of S. mutans (1 x 10^8-1 x 10^10 CFU) 3 h at 37°C; fixed, stained with crystal violet, OD595; percent of parental strain SN74
substance,measurement,value
"Cnm of Streptococcus mutans strain TW871, expressed in complemented strain SN74CNDcomp (natural protein)",percent of the collagen binding of parental strain SN74,60%
